Measured values: IntAct's records for PubMed 17891176

B1: DNA-binding protein inhibitor ID-1 (Homo sapiens), P41134 (parent)
chain: MKVASGSTATAAAGPSCALKAGKTASGAGEVVRCLSEQSVAISRCAGGAGARLPALLDEQQVNVLLYDMNGCYSRLKELVPTLPQNRKVSKVEILQHVIDYIRDLQLELNSESEVGTPGGRGLPVRAPLSTLNGEISALTAEAACVPADDRILCR

Variants of: B1
Conditions: with psmd4_human PSMD4, P55036
Sequence of psmd4_human PSMD4, P55036 (P55036 whole entry): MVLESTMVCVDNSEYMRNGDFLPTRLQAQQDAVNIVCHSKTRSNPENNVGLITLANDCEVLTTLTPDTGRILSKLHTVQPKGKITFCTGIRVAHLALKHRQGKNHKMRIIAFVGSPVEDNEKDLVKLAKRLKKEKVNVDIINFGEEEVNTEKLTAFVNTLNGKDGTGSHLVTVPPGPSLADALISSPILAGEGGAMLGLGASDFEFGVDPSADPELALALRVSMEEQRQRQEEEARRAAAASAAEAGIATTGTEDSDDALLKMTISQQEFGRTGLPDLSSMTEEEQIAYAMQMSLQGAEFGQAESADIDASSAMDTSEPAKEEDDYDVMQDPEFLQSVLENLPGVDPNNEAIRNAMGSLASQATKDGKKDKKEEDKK

Row | Variant | effect of a mutation on the interaction
1 | MKVASGSTATAAAGPSCALKAGKTASGAGEVVRCLSEQSVAISRCAGGAGARLPALLDEQQVNVLLYDMNGCYSRLKELVPTLPQNRKVSKVEILQHGIDYIRDLQLELNSESEVGTPGGRGLPVRAPLSTLNGEISALTAEAACVPADDRILCR [V98G] | decreasing interaction
